Several values for one entry are separate records, joined by “and”; a condition that tells them apart may be missing. Equal values may be shown once.
T1: human factor VIIa (human, UniProt P08709 61-466)
T1 construct: mature; also called FVIIa
T1 sequence (looked up): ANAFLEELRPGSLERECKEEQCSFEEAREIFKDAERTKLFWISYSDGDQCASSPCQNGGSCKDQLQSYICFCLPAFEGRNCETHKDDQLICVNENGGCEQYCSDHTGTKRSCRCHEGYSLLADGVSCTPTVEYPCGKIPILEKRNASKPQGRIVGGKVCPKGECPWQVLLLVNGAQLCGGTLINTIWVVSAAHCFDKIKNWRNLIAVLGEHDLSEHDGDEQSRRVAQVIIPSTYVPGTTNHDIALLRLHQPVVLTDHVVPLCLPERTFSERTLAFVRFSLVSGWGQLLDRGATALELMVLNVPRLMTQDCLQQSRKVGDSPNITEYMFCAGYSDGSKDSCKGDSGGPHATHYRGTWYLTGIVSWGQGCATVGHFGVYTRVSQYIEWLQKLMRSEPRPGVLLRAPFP

B1: single chain anti-TF antibody scFv(TF)3e10 (scFv)
scFv: EMAQVNLRESGGTLVQPGGSLRLSCAASGFSFTDAWMSWVRQAPGKELEWVSSISGSGGSTYYAGSVKGRFTISRDNSKNTLYLQMNSLRAEDTAVYYCARVLSLTDYYWYGMDVWGQGTLVTVSAGGGGSGAPNFMLTQPHSVSASPGKTVTISCTRSSGSVASYYVQWYQQRPGSSPTTVIYEDNHRPSGVPDRFSGSIDTSSNSASLTISGLKTEDEADYYCQSYDSNNLVVFGGGTKLTVLGAAAGAPVPYPDPLEPRAA
notes: Monomer and dimer forms were separated by gel filtration
B2: recombinant human soluble tissue factor (receptor, UniProt P13726 33-251, looked up)
chain: SGTTNTVAAYNLTWKSTNFKTILEWEPKPVNQVYTVQISTKSGDWKSKCFYTTDTECDLTDEIVKDVKQTYLARVFSYPAGNVESTGSAGEPLYENSPEFTPYLETNLGQPTIQSFEQVGTKVNVTVEDERTLVRRNNTFLSLRDVFGKDLIYTLYYWKSSSSGKKTAKTNTNEFLIDVDKGENYCFSVQAVIPSRTVNRKSTDSPVECMGQEKGEFRE
notes: extracellular domain; also called sTF; soluble TF

What was measured:
[1] = biological target: FVIIa/TF complex on a phospholipid surface (recombinant human TF vesicles with human FVIIa) (UniProt P13726)
human factor VIIa [2] = biological target: T1, human factor VIIa; assay: sTF/FVIIa peptide hydrolysis assay (S2266), 2 nM FVIIa, no sTF
[3] = biological target: T2, FVIIa/TF complex preformed from sTF and FVIIai (human, UniProt P13726 33-251; P08709 61-466, limits assumed, active site inactivated by a chloromethylketone peptide, PPACK (FVIIai)); assay: microcalorimetry (ITC); scFv expressed in mammalian (CHO) cells
T2 construct: extracellular domain;mature; Complex used in the microcalorimetry assay; It was made with a 2.3 fold molar excess of FVIIai over sTF; also called TF/FVIIa complex; sTF/FVIIa complex
Procedure: (§1) This assay is performed using a MicroCal VP-ITC instrument. […] Data analysis is performed using MicroCal Origin software. The data is fit to a single binding site.

[4] = biological target: T2, FVIIa/TF complex preformed from sTF and …; assay: microcalorimetry (isothermal titration calorimetry), model OneSites, CHO-expressed scFv(TF)3e10 titrated into the preformed sTF/FVIIai complex; no unit printed in the fit box
Procedure: as §1

[5] = biological target: B2; assay: microcalorimetry (ITC); scFv expressed in mammalian (CHO) cells; free sTF; microcalorimetry; free sTF; mammalian cell expressed scFv
Procedure: as §1

[6] = biological target: FVIIa/TF complex on a phospholipid surface (recombinant human TF vesicles with human FVIIa) (human, UniProt P13726 33-295; P08709 61-466); assay: cell-based or functional assay
[7] = biological target: T2, FVIIa/TF complex preformed from sTF and …; assay: microcalorimetry (ITC); scFv expressed in mammalian (CHO) cells; complex of sTF with FVIIai; microcalorimetry; TF/FVIIa complex; mammalian cell expressed scFv
Procedure: as §1

[8] = biological target: T2, FVIIa/TF complex preformed from sTF and …; assay: microcalorimetry (isothermal titration calorimetry), model OneSites, CHO-expressed scFv(TF)3e10 titrated into the preformed sTF/FVIIai complex
Procedure: as §1

[9] = biological target: T3, sTF/FVIIa complex (soluble tissue factor with active human FVIIa) (human, UniProt P13726 33-251; P08709 61-466); assay: sTF/FVIIa peptide hydrolysis assay (3 nM sTF, 2 nM FVIIa); scFv titrated, 4-parameter fit of the rise in rate; bacterially expressed scFv; peptide hydrolysis assay with 3 nM sTF and 2 nM FVIIa present
T3 construct: extracellular domain;mature; The complex forms in the sTF/FVIIa peptide hydrolysis assay (3 nM sTF, 2 nM FVIIa); also called FVIIa/TF complex; VIIa/TF complex

[10] = biological target: B2; assay: BIAcore; BIAcore; free sTF, no FVIIa
[11] = biological target: B2; assay: microcalorimetry (isothermal titration calorimetry), model OneSites, CHO-expressed scFv(TF)3e10 titrated into sTF; no unit printed in the fit box
Procedure: as §1

human factor VIIa [12] = biological target: T1, human factor VIIa; assay: sTF/FVIIa peptide hydrolysis assay (S2266), 2 nM FVIIa, sTF titrated, apparent KD from a 4-parameter fit; no antibody

Molecule: human factor X
Km of FX for the VIIa/TF complex (FX activation assay) [1]: between 0.061 and 0.099 µM

Molecule: B1
binding result (human factor VIIa [2]): no binding (tested: 800 nM)
fold higher affinity for the TF/FVIIa complex as compared to free sTF [3]: ~20 fold
ΔH [4]: -28600
ΔS [4]: -60
Kd [5]: 600 nM
IC50 for inhibition in the FX activation assay [6]: 0.44 nM
Kd [7]: 33 nM
N [8]: 1.14
Kd [9]: 65 nM
Kd [10]: 470 nM
ΔH [11]: -21800

Molecule: B2
Kd (human factor VIIa [12]): 13 nM
